# Measurements taken from patent US20040235062A1, “Method of analyzing protein occurring in cell or substance interacting with the protein” (priority 2002, published 2004).
# Target: T1, GC-A receptors (Homo sapiens, UniProt P16066)
# T1 construct: expressed in transfected cells; host or cells: CHO/GC-A cells (Chinese hamster ovary), membrane fraction
# T1 sequence (P16066 33-1061): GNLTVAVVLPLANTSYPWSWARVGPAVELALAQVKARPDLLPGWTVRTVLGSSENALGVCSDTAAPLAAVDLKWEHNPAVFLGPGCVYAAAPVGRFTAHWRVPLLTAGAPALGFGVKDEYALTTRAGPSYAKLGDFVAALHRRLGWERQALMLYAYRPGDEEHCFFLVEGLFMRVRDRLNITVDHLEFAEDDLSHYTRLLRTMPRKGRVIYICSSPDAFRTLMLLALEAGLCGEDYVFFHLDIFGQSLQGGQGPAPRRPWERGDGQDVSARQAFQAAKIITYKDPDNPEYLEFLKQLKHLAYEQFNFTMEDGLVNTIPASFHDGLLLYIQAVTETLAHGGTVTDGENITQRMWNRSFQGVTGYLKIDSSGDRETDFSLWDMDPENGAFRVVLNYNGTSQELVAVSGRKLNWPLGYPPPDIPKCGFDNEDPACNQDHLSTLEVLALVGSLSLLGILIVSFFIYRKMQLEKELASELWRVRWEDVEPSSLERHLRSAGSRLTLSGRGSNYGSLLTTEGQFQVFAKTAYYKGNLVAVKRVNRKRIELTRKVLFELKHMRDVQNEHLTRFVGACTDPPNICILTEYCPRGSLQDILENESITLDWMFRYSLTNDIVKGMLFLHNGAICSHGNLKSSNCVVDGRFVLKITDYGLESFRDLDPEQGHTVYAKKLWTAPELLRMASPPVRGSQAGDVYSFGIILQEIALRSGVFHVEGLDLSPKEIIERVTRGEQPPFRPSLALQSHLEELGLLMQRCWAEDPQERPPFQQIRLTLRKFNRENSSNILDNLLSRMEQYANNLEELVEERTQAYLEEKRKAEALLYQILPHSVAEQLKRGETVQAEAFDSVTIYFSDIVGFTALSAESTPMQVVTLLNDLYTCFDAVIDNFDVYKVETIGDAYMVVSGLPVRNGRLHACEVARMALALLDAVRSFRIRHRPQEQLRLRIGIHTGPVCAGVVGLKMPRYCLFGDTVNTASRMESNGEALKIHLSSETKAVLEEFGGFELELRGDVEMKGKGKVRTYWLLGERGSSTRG
# Test: Selectivity experiment: peptide mixture bound to GC-A expressed cell membrane fraction, MALDI-TOF-MS
# Assay type: binding
# Settings: 10 pmol/μl each, CHO/GC-A vs CHO host cell membrane fraction
# Experimental: An albumin-coated membrane fraction (CHO/GC-A cells and CHO host cells) was obtained in the same manner as in Step 1. and Step 2. of Example 1.
# The resulting suspension was centrifuged to obtain pellets. The resulting pellets were further washed with 500 μl of distilled water, and centrifugation was performed again to obtain a ligand-bound membrane fraction.
# MALDI-TOF-MS measurement was made in the same manner as in Step 4. of Example 1.
row,Substance,interaction with GC-A receptors (judgement)
1,"angiotensin I (DRVYIHPFHL; Angiotensin-1; UniProt P01019 25-34, looked up)",do not interact with GC-A receptors
2,substance P,do not interact with GC-A receptors
3,melanocyte-stimulating hormone [α-MSH],do not interact with GC-A receptors
